Source: the supplement of paper PMC7877785
± gives the uncertainty stated by the source.

Experiment: self-splicing fitness, log relative to wild type (ln ratio); higher = more splicing; Tetrahymena group I intron in knt gene, E. coli kanamycin selection, DiMSum; sequences stand for … in CUCUCU…GGAGGGAAAAGUUAUCAGGCAUGCACCUGGUAGCUAGUCUUUAAACCAAUAGAUUGCAUCGGUUUAAAAGGCAAGACCGUCAAAUUGCGGGAAAGGGGUCAACAGCCGUUCAGUACCAAGUCUCAGGGGAAACUUUGAGAUGGCCUUGCAAAGGGUAUGGUAAUAAGCUGACGGACAUGGUCCUAACCACGCAGCCAAGUCCUAAGUCAACAGAUCUUCUGUUGAUAUGGAUGCAGUUCACAGACUAAAUGUCGGUCGGGGAAGAUGUAUUCUUCUCAUAAGAUAUAGUCGGACCUCUCCUUAAUGGGAGCUAGCGGAUGAAGUGAUGCAACACUGGAGCCGCUGGGAACUAAUUUGUAUGCGAAAGUAUAUUGAUUAGUUUUGGAGUACUCGUGGUCG
Procedure, shortened: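 DiMSum derived fitness as the error-weighted combination of fold changes across replicates, kanamycin versus no kanamycin, normalised to wild type. E. coli BL21(DE3) held the library, which randomised all eight P1ex-region intron nucleotides within the knt kanamycin-resistance gene on pET-22b(+). Six replicate transformations grew overnight at 37°C or 30°C on LB agar with or without 25 μg/mL kanamycin, also containing 100 μg/mL carbenicillin, 50 μM IPTG and 0.2% rhamnose, and pooled colonies were amplicon-sequenced on an Illumina HiSeq 2500.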

Sequence | self-splicing fitness (ln) (30 °C) | self-splicing fitness (ln) (37 °C)
UGUAAGCAAUAUUACGACUU | -1.06 ± 0.09 | 0.0267 ± 0.14
UGUAAGCAAUAUUACGAGAC | -3.68 ± 0.43 | -0.552 ± 0.26
UGUAAGCAAUAUUACGAUCG | 0.587 ± 0.097 | -0.129 ± 0.11
UGUAAGCAAUAUUACGAUUU | -1.82 ± 0.17 | -1.24 ± 0.14
UGUAAGCAAUAUUACGCAAC | -3.15 ± 0.31 | -1.79 ± 0.29
UGUAAGCAAUAUUACGCACA | -1.44 ± 0.13 | -0.574 ± 0.17
UGUAAGCAAUAUUACGCGAG | -3.32 ± 0.27 | -1.56 ± 0.17
UGUAAGCAAUAUUACGCGUU | -2.69 ± 0.26 | -0.234 ± 0.2
UGUAAGCAAUAUUACGGACU | -0.351 ± 0.094 | 0.0199 ± 0.11
UGUAAGCAAUAUUACGGCAU | -1.48 ± 0.12 | -0.402 ± 0.11
UGUAAGCAAUAUUACGGCCG | -0.494 ± 0.17 | -0.516 ± 0.25
UGUAAGCAAUAUUACGGCCU | -1.08 ± 0.1 | -0.452 ± 0.12
UGUAAGCAAUAUUACGGCGU | -0.483 ± 0.1 | -0.397 ± 0.12
UGUAAGCAAUAUUACGGGAC | -2.45 ± 0.25 | -2.62 ± 0.44
UGUAAGCAAUAUUACGGUAA | -1.8 ± 0.2 | -0.586 ± 0.12
UGUAAGCAAUAUUACGUAUU | -2.86 ± 0.11 | -0.873 ± 0.083
UGUAAGCAAUAUUACGUCCA | 0.388 ± 0.1 | -0.132 ± 0.12
UGUAAGCAAUAUUACGUGAG | -1.07 ± 0.047 | -0.92 ± 0.077
UGUAAGCAAUAUUACGUGCC | -1.46 ± 0.2 | -0.0201 ± 0.22
UGUAAGCAAUAUUACGUGGG | -3.6 ± 0.19 | -2.42 ± 0.22
UGUAAGCAAUAUUACGUUAA | -2.04 ± 0.13 | -0.926 ± 0.12
UGUAAGCAAUAUUACGUUCU | -0.123 ± 0.085 | -0.0225 ± 0.1
UGUCAGCAAUAUUACGACAU | -3.964 ± 0.028 | -2.58 ± 0.04
UGUCAGCAAUAUUACGAUAG | -0.276 ± 0.072 | 0.347 ± 0.088

Sequence | self-splicing fitness (ln) (30 °C) | self-splicing fitness (ln) (37 °C)
UGUCAGCAAUAUUACGAUCA | -0.048 ± 0.086 | -0.0719 ± 0.11
UGUCAGCAAUAUUACGCCGG | -2.61 ± 0.5 | -0.725 ± 0.36
UGUCAGCAAUAUUACGCUAU | -1.83 ± 0.11 | -1.3 ± 0.12
UGUCAGCAAUAUUACGGCAA | -0.754 ± 0.075 | -0.0955 ± 0.098
UGUCAGCAAUAUUACGGGGG | -2.6 ± 0.14 | -1.64 ± 0.15
UGUCAGCAAUAUUACGUACG | -0.208 ± 0.15 | 0.45 ± 0.15
UGUCAGCAAUAUUACGUCCA | -0.159 ± 0.094 | -0.505 ± 0.12
UGUCAGCAAUAUUACGUUUU | -3.83 ± 0.2 | -2.23 ± 0.14
UGUGAGCAAUAUUACGAAAU | -3.01 ± 0.18 | -3.22 ± 0.35
UGUGAGCAAUAUUACGAAUU | -4.64 ± 0.46 | -1.8 ± 0.45
UGUGAGCAAUAUUACGAGUG | -1.4 ± 0.071 | -1.16 ± 0.08
UGUGAGCAAUAUUACGAUCA | -0.397 ± 0.23 | -0.874 ± 0.32
UGUGAGCAAUAUUACGCAAC | -2.24 ± 0.28 | -2.4 ± 0.46
UGUGAGCAAUAUUACGCACA | -2.63 ± 0.29 | -2.84 ± 0.34
UGUGAGCAAUAUUACGCCCU | -1.54 ± 0.44 | -0.113 ± 0.36
UGUGAGCAAUAUUACGCCGA | -3.5 ± 0.39 | -1.77 ± 0.27
UGUGAGCAAUAUUACGCCUA | -0.115 ± 0.23 | –
UGUGAGCAAUAUUACGCGAG | -2.69 ± 0.22 | -1.63 ± 0.23
UGUGAGCAAUAUUACGCGCU | -2.53 ± 0.27 | -3.1 ± 0.37
UGUGAGCAAUAUUACGCGUA | -2.35 ± 0.34 | -0.703 ± 0.27
UGUGAGCAAUAUUACGGCAC | -3.21 ± 0.23 | -2.21 ± 0.23
UGUGAGCAAUAUUACGGGCA | -0.886 ± 0.069 | -0.176 ± 0.081
UGUGAGCAAUAUUACGGGGU | -3.98 ± 0.21 | -2.75 ± 0.28
UGUGAGCAAUAUUACGGGUC | -4.25 ± 0.33 | -2.41 ± 0.19

Sequence | self-splicing fitness (ln) (30 °C) | self-splicing fitness (ln) (37 °C)
UGUGAGCAAUAUUACGGUUU | -3.66 ± 0.21 | -2.65 ± 0.25
UGUGAGCAAUAUUACGUAAU | – | -2.2 ± 0.27
UGUGAGCAAUAUUACGUACC | -1.1 ± 0.23 | -0.269 ± 0.28
UGUGAGCAAUAUUACGUAGA | – | -0.751 ± 0.44
UGUGAGCAAUAUUACGUAGG | -3.5 ± 0.16 | -1.5 ± 0.14
UGUGAGCAAUAUUACGUAUG | -1.22 ± 0.1 | -1.26 ± 0.12
UGUGAGCAAUAUUACGUCAA | -3.68 ± 0.35 | -2.65 ± 0.31
UGUGAGCAAUAUUACGUCAG | -1.88 ± 0.3 | -1.02 ± 0.24
UGUGAGCAAUAUUACGUCCA | -0.973 ± 0.13 | -0.0412 ± 0.16
UGUGAGCAAUAUUACGUCUG | -0.95 ± 0.15 | -0.000357 ± 0.17
UGUGAGCAAUAUUACGUGCG | -1.36 ± 0.11 | -1.06 ± 0.14
UGUGAGCAAUAUUACGUGGG | -3.67 ± 0.25 | -2.34 ± 0.15
UGUGAGCAAUAUUACGUUAU | -4.11 ± 0.28 | -3.51 ± 0.28
UGUGAGCAAUAUUACGUUGA | -2.82 ± 0.14 | -2.11 ± 0.15
UGUUAGCAAUAUUACGAAUG | -1.1 ± 0.097 | -0.239 ± 0.13
UGUUAGCAAUAUUACGAUAU | -2.45 ± 0.21 | -0.289 ± 0.25
UGUUAGCAAUAUUACGCCAG | -1.36 ± 0.23 | -1.76 ± 0.35
UGUUAGCAAUAUUACGCCGG | -0.866 ± 0.13 | -0.696 ± 0.19
UGUUAGCAAUAUUACGCCUG | 0.435 ± 0.13 | 0.171 ± 0.17
UGUUAGCAAUAUUACGCUCA | 0.179 ± 0.19 | -0.292 ± 0.18
UGUUAGCAAUAUUACGCUGG | -3.77 ± 0.24 | 0.0911 ± 0.15
UGUUAGCAAUAUUACGGAUG | -1.89 ± 0.12 | -0.39 ± 0.11
UGUUAGCAAUAUUACGGGAA | -1.84 ± 0.24 | -0.696 ± 0.2
UGUUAGCAAUAUUACGGGUA | -0.939 ± 0.15 | -1.4 ± 0.16

Sequence | self-splicing fitness (ln) (30 °C) | self-splicing fitness (ln) (37 °C)
UGUUAGCAAUAUUACGGUGA | -1.51 ± 0.18 | -0.192 ± 0.19
UGUUAGCAAUAUUACGUAAU | -2.96 ± 0.3 | -1.02 ± 0.21
UGUUAGCAAUAUUACGUACC | -0.945 ± 0.14 | 0.399 ± 0.17
UGUUAGCAAUAUUACGUAGC | – | -0.793 ± 0.22
UGUUAGCAAUAUUACGUCCA | -0.514 ± 0.071 | 0.305 ± 0.13
UGUUAGCAAUAUUACGUCCU | -1.31 ± 0.15 | -0.516 ± 0.23
UGUUAGCAAUAUUACGUCUU | -2.21 ± 0.15 | -1.46 ± 0.13
UGUUAGCAAUAUUACGUGGG | -3.19 ± 0.27 | -2.89 ± 0.27
UGUUAGCAAUAUUACGUUUG | -2.14 ± 0.16 | -1.26 ± 0.18
UUAAAGCAAUAUUACGAAAC | – | -1.33 ± 0.29
UUAAAGCAAUAUUACGAAUG | -0.609 ± 0.096 | 0.0465 ± 0.14
UUAAAGCAAUAUUACGACCU | -0.0595 ± 0.074 | 0.121 ± 0.1
UUAAAGCAAUAUUACGACGG | -0.186 ± 0.091 | 0.75 ± 0.15
UUAAAGCAAUAUUACGACUA | 0.243 ± 0.1 | 0.643 ± 0.14
UUAAAGCAAUAUUACGAGAA | -1.48 ± 0.096 | -0.717 ± 0.12
UUAAAGCAAUAUUACGAGCC | -2.3 ± 0.15 | -1.42 ± 0.27
UUAAAGCAAUAUUACGAGCG | -0.119 ± 0.086 | 0.287 ± 0.12
UUAAAGCAAUAUUACGCAAA | -1.1 ± 0.079 | -0.177 ± 0.12
UUAAAGCAAUAUUACGCACG | -0.443 ± 0.092 | 0.47 ± 0.14
UUAAAGCAAUAUUACGCAGU | -3.1 ± 0.28 | -1.36 ± 0.18
UUAAAGCAAUAUUACGCAUG | -0.545 ± 0.12 | 0.368 ± 0.13
UUAAAGCAAUAUUACGCCGC | -2.1 ± 0.39 | 0.305 ± 0.29
UUAAAGCAAUAUUACGCCGU | -0.966 ± 0.18 | -0.394 ± 0.25
UUAAAGCAAUAUUACGCGAC | -2.19 ± 0.15 | -1.72 ± 0.17
